{"source": "patent US20070172470A1", "about": "“Phosphatase regulation of nucleic acid transcription” (The Regents of the University of California, priority 2003, published 2007)", "key": {"[1]": {"test_system": "P19 mouse embryonic stem cells", "test": "Neuronal differentiation of P19 cells", "type": "cell-based", "details": "clonal P19 line, retinoic acid, selective medium", "description": "P19 cells, C, differentiated GFP expressing P19 cells; D, differentiated SCP1-expressing P19 cells; F, differentiated REST/NRSF-expressing P19 cells. Numbers of NLC per field are shown. *p=0.001 compared to WT 19 cells; **p=0.008 compared to WT P19 cell using student's t-test.\nP19 stably expressing REST/NRSF.\nThese cell lines were maintained in α-MEM/10%FBS with […] G418. To induce neuronal differentiation, P19 cells were allowed to aggregate in bacterial grade petri-dishes (Fisher) at a seeding density of 1×10^5cells/ml in the presence of 1×10^−6M all-trans retinoic acid. After 3 days of aggregation, cells were dissociated into single cells by 0.05% trypsin-0.53 mM EDTA (Gibco). Trypsin was removed by centrifugation and the cells were plated in 6 cm tissue culture dishes (Nunc). at a density of 1×10^5 cells/cm^2 in Neurobasal medium/N2 supplement (Invitrogen) in the presence or absence of 1 μg/ml fibronectin (Invitrogen). The cells were cultured for 5 days after which average cell numbers/field were determined. Cells were either lysed to prepare total RNA (Rneasy kit, Qiagen) or stained with TuJ1 antibody (Babco).\nFor immunostaining, cells were fixed for 10 mins with 4% paraformaldehyde. TuJ1 antibody was used at 1:2000 and secondary antibody used was FITC-conjuagated anti-mouse (1:3000)."}, "GST-CTDo": {"target": "T1, GST-CTDo (Homo sapiens, UniProt P24928)", "T1 construct": "made in house", "T1 sequence (P24928 1593-1960 A1835T, one chain of several)": "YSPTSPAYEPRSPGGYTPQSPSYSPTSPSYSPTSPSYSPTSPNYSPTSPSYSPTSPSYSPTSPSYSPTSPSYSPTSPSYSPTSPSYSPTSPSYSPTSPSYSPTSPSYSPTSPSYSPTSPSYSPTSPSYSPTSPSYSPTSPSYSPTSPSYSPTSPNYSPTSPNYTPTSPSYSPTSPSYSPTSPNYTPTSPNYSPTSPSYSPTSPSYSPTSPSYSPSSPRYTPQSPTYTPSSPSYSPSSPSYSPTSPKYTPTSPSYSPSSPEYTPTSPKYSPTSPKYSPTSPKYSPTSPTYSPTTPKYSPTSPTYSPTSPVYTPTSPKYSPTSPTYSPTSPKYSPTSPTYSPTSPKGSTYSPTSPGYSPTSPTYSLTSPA", "test": "CTD phosphatase assay with GST-CTDo (rCTDo) as substrate", "type": "biochemical", "description": "(§1) FIGS. 2C and 2D show a CTD phosphatase assay of FCP1 and SCP1 on GST-CTDo and RNAP IIO prepared by MAPK2/ERK2. Increasing amounts of FCP1 or GST-SCP1 214 were assayed in the presence of 75 fmol GST-CTDo (lanes 1-6), 75 fmol RNAP IIO (lanes 7-12), or 75 fmol GST-CTDo and 75. fmol RNAP IIO (lanes 13-18). Both GST-CTDo and RNAP IIO substrates were prepared by the in vitro phosphorylation of CKII-labeled GST-CTDa or RNAP IIA by MAPK2/ERK2. All reactions were carried out in the presence of 7 pmol RAP74. CTD dephosphorylation of both GST-CTDo and RNAP IIO is shown by the increase in mobility of GST-CTDo to GST-CTDa and subunit IIo to IIa, respectively. The difference in the intensity of radiolabeled GST-CTDoand that of radiolabeled subunit IIo is not a reflection of a difference in the amount of substrates present, but of the higher efficiency with which CKII incorporates radiolabeled phosphates onto the most C-terminal serine of GST-CTDa compared to subunit. IIa.\nPreparation and Purification of ^32P-RNAP IIO Isozymess and ^32P-GST-CTDo: Calf thymus RNAP IIA was purified by the method of Hodo and Blatti (30) with modifications as described by Kang and Dahmus (31). […]\nCTD phosphatase assays utilizing RNAP IIO and GST-CTDo as substrate were performed as described previously (32) with minor modifications. […] Data were quantitatively analyzed by ImageQuant software."}, "[2]": {"test_system": "28 aa CTD heptad repeat peptide with Ser 5 phosphate or Ser 2 phosphate", "test": "CTD phosphopeptide phosphatase assay (malachite green)", "type": "biochemical", "details": "25 μM phosphopeptide, 60 mins at 37° C.", "description": "The indicated amounts of. SCP1 were incubated with the phosphopeptide substrate and phosphate released was measured as described infra.\nN-terminal biotinylated CTD phosphopeptides, comprised of 4 tandem repeats YSPTSPS and containing phosphoserine at position 2 or position 5, were synthesized (Alpha Diagnostics, San Antonio, Tex.). Phosphatase reaction mixtures (50 μl) containing 50 mM Tris-acetate, pH 5.5, 10 mM MgCl2, 0.5 mM DTT, 10% glycerol, 25 μM of phosphopeptide and wild type or mutant SCP1 were incubated for 60 mins at 37° C. The reactions were quenched by adding 0.5 ml of malachite green (Biomol). Phosphate release was measured at A620 and quantified relative to a phosphate standard curve."}, "RNAP IIO": {"target": "T2, RNAP IIO (Bos taurus, UniProt G3MZY8)", "T2 construct": "Calf thymus RNAP IIA was purified; from tissue; host or cells: calf thymus", "test": "CTD phosphatase assay with RNAP IIO as substrate", "type": "biochemical, calf", "description": "as §1\nIncreasing amounts of GST-SCP1 214 were assayed in the presence of 3.7 fmol RNAP IIO prepared by CTDK1/CTDK2, TFIIH, P-TEFb, MAPK2/ERK2 and Cdc2 kinase. All reactions were carried out in-the presence of 7 pmol. RAP74. CTD dephosphorylation of RNAP IIO isozymes. by qSTSCP1 214 is shown by an increase in mobility of subunit IIo to that of IIa. The results are summarized in the graph showing the percent of RNAP IIO remaining as a function of increasing SCP1 concentrations.\nPreparation and Purification of ^32P-RNAP IIO Isozymess and ^32P-GST-CTDo: Calf thymus RNAP IIA was purified by the method of Hodo and Blatti (30) with modifications as described by Kang and Dahmus (31). Specific isozymes of ^32p-labeled RNAP IIO were prepared by phosphorylation at the most C-terminal serine (CKII site) in the largest subunit of purified RNAP IIA with recombinant CKII and […], followed by CTD phosphorylation in the presence of 2 mM ATP with either purified CTDK1/CTDK2, TFIIH, P-TEFb, recombinant MAPK2/ERK2 or recombinant Cdc2 kinase. The RNAP IIO isozymes were individually purified over a DE53 column with a step elution of 500 mM KCl (28). Because only the most C-terminal serine is labeled with ^32p and lies outside. the consensus repeat, dephosphorylation by CTD phosphatase results in an electrophoretic mobility shift in SDS-PAGE of subunit IIo to the position of subunit IIa without the loss of label. Similarly, ^32P-labeled GST-CTDo was prepared from GST-CTDa by CKII followed by MAPK2/ERK2. GST-CTDo was purified over a glutathione-agarose column with a step elution of 15 mM glutathione.\nCTD phosphatase assays utilizing RNAP IIO and GST-CTDo as substrate were performed as described previously (32) with minor modifications. Reactions were performed in 20 μl of CTD phosphatase buffer (50 mM Tris-HCl, pH 7.9, 10 mM MgCl2, 20% glycerol, 0.025% Tween 80, 0.1 mM EDTA, 5 mM DTT) in the presence of 20 mM KCl. Each reaction contained specified amounts of GST-CTDo and/or RNAP IIO and was carried out in the presence of 7 pmol RAP74. Reactions were initiated by the addition of FCP1 or SCP1 and incubated at 30° C. for 30 minutes. Assays were terminated by the addition of 5× Laemmli buffer, and RNAP II subunits and GST-CTD were resolved on a 5% SDS-PAGE gel. The gel images were developed by autoradiography and scanned by Molecular Dynamics Image Scanner Storm 860 in the phosphor screen mode. Data were quantitatively analyzed by ImageQuant software."}}}
{"molecule": "REST/NRSF: RE-1 silencing transcription factor / Neuron-Restrictive Silencer Factor (protein, UniProt Q13127 1-1097, looked up) RE1-silencing transcription …: MATQVMGQSSGGGGLFTSSGNIGMALPNDMYDLHDLSKAELAAPQLIMLANVALTGEVNGSCCDYLVGEERQMAELMPVGDNNFSDSEEGEGLEESADIKGEPHGLENMELRSLELSVVEPQPVFEASGAPDIYSSNKDLPPETPGAEDKGKSSKTKPFRCKPCQYEAESEEQFVHHIRVHSAKKFFVEESAEKQAKARESGSSTAEEGDFSKGPIRCDRCGYNTNRYDHYTAHLKHHTRAGDNERVYKCIICTYTTVSEYHWRKHLRNHFPRKVYTCGKCNYFSDRKNNYVQHVRTHTGERPYKCELCPYSSSQKTHLTRHMRTHSGEKPFKCDQCSYVASNQHEVTRHARQVHNGPKPLNCPHCDYKTADRSNFKKHVELHVNPRQFNCPVCDYAASKKCNLQYHFKSKHPTCPNKTMDVSKVKLKKTKKREADLPDNITNEKTEIEQTKIKGDVAGKKNEKSVKAEKRDVSKEKKPSNNVSVIQVTTRTRKSVTEVKEMDVHTGSNSEKFSKTKKSKRKLEVDSHSLHGPVNDEESSTKKKKKVESKSKNNSQEVPKGDSKVEENKKQNTCMKKSTKKKTLKNKSSKKSSKPPQKEPVEKGSAQMDPPQMGPAPTEAVQKGPVQVEPPPPMEHAQMEGAQIRPAPDEPVQMEVVQEGPAQKELLPPVEPAQMVGAQIVLAHMELPPPMETAQTEVAQMGPAPMEPAQMEVAQVESAPMQVVQKEPVQMELSPPMEVVQKEPVQIELSPPMEVVQKEPVKIELSPPIEVVQKEPVQMELSPPMGVVQKEPAQREPPPPREPPLHMEPISKKPPLRKDKKEKSNMQSERARKEQVLIEVGLVPVKDSWLLKESVSTEDLSPPSPPLPKENLREEASGDQKLLNTGEGNKEAPLQKVGAEEADESLPGLAANINESTHISSSGQNLNTPEGETLNGKHQTDSIVCEMKMDTDQNTRENLTGINSTVEEPVSPMLPPSAVEEREAVSKTALASPPATMAANESQEIDEDEGIHSHEGSDLSDNMSEGSDDSGLHGARPVPQESSRKNAKEALAVKAAKGDFVCIFCDRSFRKGKDYSKHLNRHLVNVYYLEEAAQGQE", "values": [{"measurement": "effect on neuronal differentiation", "setting": "[1]", "result": "prevented neuronal differentiation"}]}
{"molecule": "FCP1: recombinant CTD phosphatase FCP1, class C phosphatase with BRCT domain (protein) MEVPAAGRVPAEGAPTAAVAEVRCPGPAPLRLLEWRVAAGAAVRIGSVLAVFEAAASAQSSGASQSRVASGGCVRPARPERRLRSERAGVVRELCAQPGQVVAPGAVLVRLEGCSHPVVMKGLCAECGQDLTQLQSKNGKQQVPLSTATVSMVHSVPELMVSSEQAEQLGREDQQRLHRNRKLVLMVDLDQTLIHTTEQHCQQMSNKGIFHFQLGRGEPMLHTRLRPHCKDFLEKIAKLYELHVFTFGSRLYAHTIAGFLDPEKKLFSHRILSRDECIDPFSKTGNLRNLFPCGDSMVCIIDDREDVWKFAPNLITVKKYVYFQGTGDMNAPPGSRESQTRKKVNHSRGTEVSEPSPPVRDPEGVTQAPGVEPSNGLEKPARELNGSEAATPRDSPRPGKPDERDIWPPAQAPTSSQELAGAPEPQGSCAQGGRVAPGQRPAQGATGTDLDFDLSSDSESSSESEGTKSSSSASDGESEGKRGRQKPKAAPEGAGALAQGSSLEPGRPAAPSLPGEAEPGAHAPDKEPELGGQEEGERDGLCGLGNGCADRKEAETESQNSELSGVTAGESLDQSMEEEEEEDTDEDDHLIYLEEILVRVHTDYYAKYDRYLNKEIEEAPDIRKIVPELKSKVLADVAIIFSGLHPTNFPIEKTREHYHATALGAKILTRLVLSPDAPDRATHLIAARAGTEKVLQAQECGHLHVVNPDWLWSCLERWDKVEEQLFPLRDDHTKAQRENSPAAFPDREGVPPTALFHPMPVLPKAQPGPEVRIYDSNTGKLIRTGARGPPAPSSSLPIRQEPSSFRAVPPPQPQMFGEELPDAQDGEQPGPSRRKRQPSMSETMPLYTLCKEDLESMDKEVDDILGEGSDDSDSEKRRPEEQEEEPQPRKPGTRRERTLGAPASSERSAAGGRGPRGHKRKLNEEDAASESSRESSNEDEGSSSEADEMAKALEAELNDLM", "values": [{"measurement": "concentration without dephosphorylation of rCTDo, relative to that required to dephosphorylate RNAP IIO", "setting": "GST-CTDo", "result": "> 100", "unit": "times"}, {"measurement": "dephosphorylation of Ser 5 versus Ser 2 phosphopeptide", "setting": "[2]", "result": "did not act on either phosphopeptide"}, {"measurement": "dephosphorylation of RNAP IIO prepared with Cdc2 kinase", "setting": "RNAP IIO; 3.7 fmol RNAP IIO, 7 pmol RAP74", "result": "efficiently dephosphorylates"}]}
{"molecule": "SCP2: small CTD phosphatase-2, SEQ ID NO:4 (protein, listed as Homo sapiens) MEHGSIITQARREDALVLTKQGLVSKSSPKKPRGRNIFKALFCCFRAQHVGQSSSSTELAAYKEEANTIAKSDLLQCLQYQFYQIPGTCLLPEVTEEDQGRICVVIDLDETLVHSSFKPINNADFIVPIEIEGTTHQVYVLKRPYVDEFLRRMGELFECVLFTASLAKYADPVTDLLDRCGVFRARLFRESCVFHQGCYVKDLSRLGRDLRKTLILDNSPASYIFHPENAVPVQSWFDDMADTELLNLIPIFEELSGAEDVYTSLGAAAGPLACPASKRRPSQ", "values": [{"measurement": "CTD phosphatase activity when RNAP IIO is utilized as substrate", "setting": "RNAP IIO; compared with SCP1", "result": "comparable CTD phosphatase activity"}]}
{"molecule": "GST-SCP1 214: GST fusion of the 214 aa spliced variant of SCP1, SEQ ID NO:8 (protein, left off: a dimerising Fc or GST) MMGRPCLLTAGRPCLWRRMAPSLRQTPVQYLLPEAKAQDSDKICVVIDLDETLVHSSFKPVNNADFIIPVEIDGVVHQVYVLKRPHVDEFLQRMGELFECVLFTASLAKYADPVADLLDKWGAFRARLFRESCVFHRGNYVKDLSRLGRDLRRVLILDNSPASYVFHPDNAVPVASWFDNMSDTELHDLLPFFEQLSRVDDVYSVLRQPRPGS", "values": [{"measurement": "dephosphorylation of both RNAP IIO and GST-CTDo", "setting": "GST-CTDo; substrates prepared by MAPK2/ERK2, 75 fmol each, 7 pmol RAP74", "result": "comparable efficiency"}]}
